This note sets out measurements from PMC6117947, “A role for trypanosomatid aldo-keto reductases in methylglyoxal, prostaglandin and isoprostane metabolism” (Biochemical Journal, 2018).

For data set [1], the target named is Leishmania infantum prostaglandin F synthase 1 (LiPGFS1) (Leishmania infantum). Nature of the data set: SEC; Superdex 75 10/300; LiPGFS1 kept 96 h at 4°C without a reducing agent, run without TCEP; the dimer relies on a disulfide bond.
Substrate in data set [2]: CC(=O)C=O
Nature of the data set: purified protein. The class given is biochemical, Trypanosoma cruzi. As to conditions: 100 µM NADPH, 25 mM HEPES, 150 mM NaCl, pH 7.33.

Substrate in data set [3]: O=CC=O
Nature of the data set: purified protein. It counts as biochemical, Trypanosoma cruzi. As to conditions: 100 µM NADPH, 25 mM HEPES, 150 mM NaCl, pH 7.33.

Substrate in data set [4]: O=Cc1ccccc1[N+](=O)[O-]
Nature of the data set: purified protein. Conditions: 100 µM NADPH, 25 mM HEPES, 150 mM NaCl, pH 7.33. It counts as biochemical, Trypanosoma cruzi.

Substrate in data set [5]: O=CC(O)CO
Nature of the data set: purified protein. As to conditions: 100 µM NADPH, 25 mM HEPES, 150 mM NaCl, pH 7.33. The class given is biochemical, Trypanosoma cruzi.

Substrate in data set [6]: O=CC(=O)c1ccccc1
Nature of the data set: purified protein. The class given is biochemical, Trypanosoma cruzi. As to conditions: 100 µM NADPH, 25 mM HEPES, 150 mM NaCl, pH 7.33.

Substrate in data set [7]: O=Cc1ccc([N+](=O)[O-])cc1
Nature of the data set: purified protein. It counts as biochemical, Trypanosoma brucei. As to conditions: 100 µM NADPH, 25 mM HEPES, 150 mM NaCl, pH 7.33.

Substrate in data set [8]: CC(=O)C=O
Nature of the data set: purified protein. It counts as biochemical, Trypanosoma brucei. As to conditions: 100 µM NADPH, 25 mM HEPES, 150 mM NaCl, pH 7.33.

Substrate in data set [9]: O=Cc1cccc([N+](=O)[O-])c1
Nature of the data set: purified protein. Conditions: 100 µM NADPH, 25 mM HEPES, 150 mM NaCl, pH 7.33. It counts as biochemical, Trypanosoma brucei.

Substrate in data set [10]: O=Cc1ccccc1[N+](=O)[O-]
Nature of the data set: purified protein. It counts as biochemical, Trypanosoma brucei. Conditions: 100 µM NADPH, 25 mM HEPES, 150 mM NaCl, pH 7.33.

Substrate in data set [11]: O=CC(=O)c1ccccc1
Nature of the data set: purified protein. It counts as biochemical, Trypanosoma brucei. Conditions: 100 µM NADPH, 25 mM HEPES, 150 mM NaCl, pH 7.33.

Substrate in data set [12]: O=Cc1ccc([N+](=O)[O-])cc1
Nature of the data set: purified protein. It counts as biochemical, Leishmania infantum. As to conditions: 100 µM NADPH, 25 mM HEPES, 150 mM NaCl, pH 7.33.

Substrate in data set [13]: CC(=O)C=O
Nature of the data set: purified protein. As to conditions: 100 µM NADPH, 25 mM HEPES, 150 mM NaCl, pH 7.33. The class given is biochemical, Leishmania infantum.

Substrate in data set [14]: O=Cc1ccccc1[N+](=O)[O-]
Nature of the data set: purified protein. It counts as biochemical, Leishmania infantum. Conditions: 100 µM NADPH, 25 mM HEPES, 150 mM NaCl, pH 7.33.

Substrate in data set [15]: O=CC(O)CO
Nature of the data set: purified protein. It counts as biochemical, Leishmania infantum. Conditions: 100 µM NADPH, 25 mM HEPES, 150 mM NaCl, pH 7.33.

Substrate in data set [16]: O=CC(=O)c1ccccc1
Nature of the data set: purified protein. The class given is biochemical, Leishmania infantum. Conditions: 100 µM NADPH, 25 mM HEPES, 150 mM NaCl, pH 7.33.

Substrate in data set [17]: O=Cc1cccc([N+](=O)[O-])c1
Nature of the data set: purified protein. The class given is biochemical, Leishmania infantum. Conditions: 100 µM NADPH, 25 mM HEPES, 150 mM NaCl, pH 7.33.

Substrate in data set [18]: O=CC=O
Nature of the data set: purified protein. The class given is biochemical, Leishmania infantum. As to conditions: 100 µM NADPH, 25 mM HEPES, 150 mM NaCl, pH 7.33.

The term stoichiometry N denotes a count of units in the complex or per binding partner. Turning to “Leishmania infantum prostaglandin F synthase 1 (LiPGFS1) (enzyme)”, in data set [1], the percent of the protein eluting as dimer came out at 25% and the stoichiometry N stood at 2.

B1: TcAKR (Trypanosoma cruzi) (protein)
chain: MNCNYNCVTLHNSAQMPQLGLGVWRAQDGAETANAVRWAIEAGYRHIDTACIYNNEKGVGQGIRESGVPREEVWVTTKVWNSDQGYEKTLAAFERSRELLGLEYIDLYLIHWPGKKKFVDTWKALEKLYEEKKVRAIGVSNFEPHHLTELFKSCKIRPMVNQVELHPLFQQRALREFCKQHNIAVTAWSPLGSGDEAGILKNHVLGEIAKKHNKSPAQVVIRWDIQHGIVTIPKSTNKGRIQENFNVWDFKLTEEEMRQIDELNEDKRIGADPDNFFPGGEE
notes: full-length ORF, pET15b-TEV, E. coli Rosetta (DE3) pLysS, His6 tag cut with TEV protease; monomer
A word on the kcat: it is the maximal rate divided by the concentration of active sites. As usually defined, the kcat/Km is the second-order rate constant that governs catalysis at low substrate concentration. As a reminder, the Km is the concentration of substrate that gives half-maximal velocity. For B1, the kcat in the data set “purified protein [2]” is 4.69 ± 0.03 s⁻¹; in “purified protein [3]”, 4.56 ± 0.05 s⁻¹; in the data set “purified protein [4]”, 2.25 ± 0.11 s⁻¹; in the data set “purified protein [5]” it was 4.94 ± 0.11 s⁻¹; in the data set “purified protein [6]”, 4.46 ± 0.08 s⁻¹. Moreover, the kcat/Km in the data set “purified protein [2]” worked out at 19500 M⁻¹ s⁻¹; in “purified protein [3]”, 549 M⁻¹ s⁻¹; in the data set “purified protein [4]”, 3170 M⁻¹ s⁻¹; in the data set “purified protein [5]” it was 3290 M⁻¹ s⁻¹; in “purified protein [6]”, 89200 M⁻¹ s⁻¹. Besides, the Km in “purified protein [3]” came out at 8300 ± 310 µM; in the data set “purified protein [4]”, 710 ± 80 µM; in the data set “purified protein [5]”, 1500 ± 170 µM; in “purified protein [6]”, 50 ± 3 µM.

B2: TbPGFS (Trypanosoma brucei brucei) (protein)
chain: MALTQSLKLSNGVMMPVLGFGMWKLQDGNEAETATMWAIKSGYRHIDTAAIYKNEESAGRAIASCGVPREELFVTTKLWNSDQGYESTLSAFEKSIKKLGLEYVDLYLIHWPGKDKFIDTWKAFEKLYADKKVRAIGVSNFHEHHIEELLKHCKVAPMVNQIELHPLLNQKALCEYCKSKNIAVTAWSPLGQGHLVEDARLKAIGGKYGKTAAQVMLRWEIQAGVITIPKSGNEARIKENGNIFDFELTAEDIQVIDGMNAGHRYGPDPEVFMNDF
notes: full-length ORF from genomic DNA, pET15b-TEV, E. coli, His6 tag cut with TEV protease; monomer
With B2, the Km in “purified protein [7]” came to 4.3 ± 0.2 µM; in “purified protein [9]”, 2 ± 0.1 µM; in the data set “purified protein [10]” it was 3 ± 0.3 µM; in “purified protein [11]” it was 5 ± 0.8 µM. Further, the kcat in the data set “purified protein [7]” was 0.43 ± 0.008 s⁻¹; in “purified protein [8]”, 0.38 ± 0.007 s⁻¹; in “purified protein [9]”, 0.34 ± 0.005 s⁻¹; in “purified protein [10]” it was 0.41 ± 0.002 s⁻¹; in the data set “purified protein [11]” it was 0.34 ± 0.014 s⁻¹. Further, the kcat/Km in the data set “purified protein [7]” is 100000 M⁻¹ s⁻¹; in “purified protein [8]” it was 38000 M⁻¹ s⁻¹; in “purified protein [9]”, 170000 M⁻¹ s⁻¹; in “purified protein [10]”, 140000 M⁻¹ s⁻¹; in “purified protein [11]”, 68000 M⁻¹ s⁻¹.

B3: LiPGFS1 (Leishmania infantum) (protein)
chain: MTGKCTHVTLGNGVQVPQLGIGTWEAKNGNEVVQNIKWAINAGYRHIDTAHYYKNEKGVGQGISECGVPRSDIFVTTKLWNYDHGYESALAAFEQSRQALGVEYVDLYLIHWPGPNRSYIETWRAFEKLYEMKKVRAIGVSNFEPHHLDDLLANCTVPPMVNQVEMHPHFQQKALRAYCAEKNIAVTAWRPLGKGALLTEPQLVELAEKHKRSAAQVIIRWLIQLGVIAIPKSSHEERIKQNFDVFDFELSPEDMRRLESMDKNSRIGPSPETFFPTECK
notes: synthetic full-length ORF (GeneART), pET15b-TEV, E. coli, His6 tag cut with TEV protease; mainly monomer
As for B3, the Km amounted to 430 ± 26 µM in the data set “purified protein [12]”; 800 ± 70 µM in the data set “purified protein [13]”; 320 ± 20 µM in the data set “purified protein [14]”; 2870 ± 80 µM in “purified protein [15]”; 140 ± 8 µM in the data set “purified protein [16]”. The kcat in the data set “purified protein [12]” was 0.48 ± 0.01 s⁻¹; in the data set “purified protein [13]”, 8.72 ± 0.17 s⁻¹; in the data set “purified protein [14]” it was 8.5 ± 0.21 s⁻¹; in “purified protein [15]”, 8.72 ± 0.11 s⁻¹; in the data set “purified protein [16]”, 10.4 ± 0.22 s⁻¹. Moreover, the kcat/Km in “purified protein [12]” stood at 1110 M⁻¹ s⁻¹; in the data set “purified protein [13]” it was 10900 M⁻¹ s⁻¹; in the data set “purified protein [14]” it was 26600 M⁻¹ s⁻¹; in “purified protein [15]”, 3040 M⁻¹ s⁻¹; in “purified protein [16]”, 74300 M⁻¹ s⁻¹.

B4: LiPGFS2 (Leishmania infantum) (protein)
chain: MADVGKAMVTLSNGVQMPQLGLGVWQSPAGEVTANAVKWALCAGYRHIDTAAIYKNEESVGAGLRASGVPREDVFITTKLWNTEQGYESTLAAFEESRQKLGVDYIDLYLIHWPRGKDIVSKEGKKYLDSWRAFEQLYKDKKVRAIGVSNFHIHHLEDVLAMCTVTPMVNQVELHPLNNQAELRAFCDAKQIKVEAWSPLGQGKLLSNPILAAIGAKYNKTAAQVILRWNIQKNLITIPKSVHKERIEENADVFNFELGAEDVMRIDALNTNSRYGPDPDEAQF
notes: as for B2
As to B4, the Km in “purified protein [12]” is 4 ± 0.6 µM; in “purified protein [17]” it was 2 ± 0.3 µM; in “purified protein [18]”, 560 ± 50 µM; in “purified protein [14]”, 2.4 ± 0.3 µM. Moreover, the kcat in the data set “purified protein [12]” came to 1.13 ± 0.05 s⁻¹; in the data set “purified protein [13]” it was 1.13 ± 0.01 s⁻¹; in “purified protein [17]”, 1.04 ± 0.02 s⁻¹; in “purified protein [18]”, 1.05 ± 0.02 s⁻¹; in the data set “purified protein [14]”, 1.04 ± 0.02 s⁻¹. In addition, the kcat/Km turned out to be 283000 M⁻¹ s⁻¹ in “purified protein [12]”; 56500 M⁻¹ s⁻¹ in the data set “purified protein [13]”; 520000 M⁻¹ s⁻¹ in “purified protein [17]”; 1880 M⁻¹ s⁻¹ in the data set “purified protein [18]”; 433000 M⁻¹ s⁻¹ in the data set “purified protein [14]”.
